The source of these data is patent publication US20100280227A1 (Genentech, published 2010).

First the molecules themselves.
T1: mouse BR3 extracellular domain (mouse, UniProt Q9D8D0 1-64)
T1 construct: also called mBR3-ECD; mBR-ECD
T1 sequence: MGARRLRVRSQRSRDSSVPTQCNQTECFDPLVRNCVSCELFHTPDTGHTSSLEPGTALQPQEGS

B1: Hu2.1-46 Fab (Fab, V domains shown)
VH: EVQLVESGGGLVQPGGSLRLSCAASGDSITRGYWNWVRQAPGKGLEWVGYINYSGTTYYNPSLKSRFTISRDTSKNTFYLQMNSLRAEDTAVYYCANSNFYGAMDYWGQGTLVTVSS
VL: DIQMTQSPSSLSASVGDRVTITCRASESVDDYGISFMHWYQQKPGKAPKLLIYRASDLESGVPSRFSGSGSGTDFTLTISSLQPEDFATYYCQQTSKDPWTFGQGTKVEIKR
notes: Fab
B2: Hu2.1-RL Fab (Fab, V domains shown)
VH: B1 VH with F78L, N97T, S98P, N99H, F100T
VL: B1 VL
notes: Fab
B3: Hu2.1-40 Fab (Fab, V domains shown)
VH: B1 VH with N97T, S98T, N99L, F100P
VL: B1 VL
notes: Fab
B4: Hu2.1-40L Fab (Fab, V domains shown)
VH: B1 VH with F78L, N97T, S98T, N99L, F100P
VL: B1 VL
notes: Fab
B5: Hu2.1-30 Fab (Fab, V domains shown)
VH: B1 VH with S98L, F100Y
VL: B1 VL
notes: Fab
B6: Hu2.1-94 Fab (Fab, V domains shown)
VH: B1 VH with F78L, N97T, N99H, F100N, Y101T, A103E
VL: B1 VL
notes: Fab
B7: Hu11G9-36 Fab (Fab, V domains shown)
VH: EVQLVESGGGLVQPGGSLRLSCAASGDSINFGYWNWVRQAPGKGLEWVGYISYSGSTYYNPSLKSRFTISRDTSKNTFYLQMNSLRAEDTAVYYCAALNDLFLYFDVWGQGTLVTVSS
VL: DIQMTQSPSSLSASVGDRVTITCRSSQSLVHSNGNTYLHWYQQKPGKAPKLLIYKVSNRFSGVPSRFSGSGSGTDFTLTISSLQPEDFATYYCSQSTHVPPFTFGQGTKVEIKR
notes: Fab
B8: Hu11G9-46 IgG (antibody, V domains shown)
VH: B7 VH with N30T, F31S, A97G, F102Y
VL: B7 VL
notes: humanized IgG
B9: Hu11G9-36 IgG (antibody, V domains shown)
VH: B7 VH
VL: B7 VL
notes: humanized IgG
B10: chimeric 9.1 Fab (Fab, V domains shown)
VH: EVKLVESGGGLVQPGGSLRLSCAISGFTVTAYYMSWVRQPPGKALEWLGFIRDKANGYTTEYNPSVKGRFTISRDNSQSIFYLQMNTLRAEDSATYYCAQVRRALDYWGQGTTVTVSA
VL: DIVMSQSPSSLAVSVGEKVTMSCKSSQSLLYSSNQNNYLAWYQQKPGQSPKLLIYWASTRESGVPDRFTGSGSGTDFTLTISSVKAEDLAVYYCQQYYTYPYTFGGGT
notes: Fab with murine variable domains; also called Ch 9.1 Fab
B11: 3 (Fab, V domains shown)
VH: EVQLVESGGGLVQPGGSLRLSCAASGFTISSNSIHWVRQAPGKGLEWVAWVTPSGGSTDYADSVKGRFTISADTSKNTAYLQMNSLRAEDTAVYYCARRVCYNRLGVCAGGMDYWGQGTLVTVSS
VL: DIQMTQSPSSLSASVGDRVTITCRASQDVSTAVAWYQQKPGKAPKLLIYSASFLYSGVPSRFSGSGSGTDFTLTISSLQPEDFATYYCQQSRISPPTFGQGTKVEIKR
notes: also called V3-3
B12: 34 (Fab, V domains shown)
VH: B11 VH with T28S, S31N, N32H, G55Y, S57I
VL: B11 VL with I93T, S94T
notes: also called V3-34
B13: 35 (Fab, V domains shown)
VH: B11 VH with S54G, G55V
VL: B11 VL with R92L, I93M, S94T
notes: also called V3-35
B14: 27 (Fab, V domains shown)
VH: B11 VH with V51I, G55D, S57N, R104H
VL: B11 VL with I93M
notes: also called V3-27
B15: 9 (Fab, V domains shown)
VH: B11 VH with V51I, G55D, S57N
VL: B11 VL with R92H, I93N, S94T
notes: also called V3-9
B16: 24 (Fab, V domains shown)
VH: B11 VH with T28S, S30R, N32I, V51I, S54F, G55N, S57T
VL: B11 VL with R92L, S94T
notes: also called V3-24
B17: 41 (Fab, V domains shown)
VH: B11 VH with T28S, S30R, S31N, T52L, G55N, S57V
VL: B11 VL with R92G
notes: also called V3-41; clone 41
B18: 5 (Fab, V domains shown)
VH: B11 VH with N32S, V51I, S54G, G55H
VL: B11 VL with S94T
notes: also called V3-5
B19: 37 (Fab, V domains shown)
VH: B11 VH with T28S, S31R, N32R, V51I, S54L, G55Y, D59H
VL: B11 VL
notes: also called V3-37
B20: 19 (Fab, V domains shown)
VH: B11 VH with T28S, S30A, S31R, N32S, V51I, T52L, G55A
VL: B11 VL with S94T
notes: also called V3-19
B21: 16 (Fab, V domains shown)
VH: B11 VH with T28S, V51I, S54T, G55H
VL: B11 VL with S94T
notes: also called V3-16
B22: V3-46 phage clone (Fab, V domains shown)
VH: B11 VH with S31N, N32S, T52L, G55V, S57F
VL: B11 VL with R92Q
notes: also called V3-46 WT; clone 46
B23: V3-46s-12 phage clone (Fab, V domains shown)
VH: B11 VH with S30A, N32S, T52L, G55V, S57F
VL: DIQMTQSPSSLSASVGDRVTITCRASEDISSAVAWYQQKPGKAPKLLIFAASFLYSGVPSRFSGSGSGTDFTLTISSLQPEDFATYYCQQSQISPPTFGQGTKVEIK
notes: differs from V3-46s in CDR-H1 as well
B24: V3-46s-7 phage clone (Fab, V domains shown)
VH: B11 VH with N32S, T52L, G55V, S57F
VL: B23 VL with A32S, A50S, Y55F, Q92E, I93V
B25: V3-46s-10 phage clone (Fab, V domains shown)
VH: B11 VH with N32S, T52L, G55V, S57F
VL: B23 VL with F53Y, Y55F, I93V
B26: V3-46s-1 phage clone (Fab, V domains shown)
VH: B11 VH with N32S, T52L, G55V, S57F
VL: B23 VL with S30A, S31T, A32S

Changes are numbered by the printed parent chain. Several values for one entry are separate records, joined by “and”; a condition that tells them apart may be missing. Equal entries are not always repeated.

For the first test, the target named is T2, human BR3 extracellular domain (human, UniProt Q96RJ3 1-61).
T2 construct: biotinylated where used as tracer; also called hBR3-ECD; BR3-ECD
In words: SPR, BR3 ECD on chip.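 Also: Anti-BR3 antibodies passed over the chip at high flow in PBS with 0.05% polysorbate 20, on and off rates fitted together globally to a 1:1 binding model.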
Details: not given
As usually defined, the Kd is the equilibrium constant for the complex coming apart. Low values mean tighter binding, high ones weaker binding. What is called koff is the first-order rate constant of dissociation. Higher therefore signals a short-lived complex. Broadly, the kon is the second-order rate constant of association. A low value points to slow association. With B1, binding was put at a Kd of 270 pM, the koff was found to be 0.000693 s⁻¹ and the on-rate constant (kon) stood at 2.55e+06 M⁻¹ s⁻¹.

B2: the Kd worked out at 10000 pM, the off-rate (koff) amounted to 0.00176 s⁻¹ and the on-rate constant (kon) amounted to 180000 M⁻¹ s⁻¹.

The molecule B3 had a Kd of 8670 pM, a koff of 0.000923 s⁻¹ and an association rate constant (kon) of 110000 M⁻¹ s⁻¹.

For the molecule B4, the Kd is 35800 pM, the off-rate constant (koff) is 0.00156 s⁻¹ and the on-rate constant (kon) amounted to 40000 M⁻¹ s⁻¹.

Regarding B5, the equilibrium dissociation constant (Kd) was 80 pM and 59 pM; the off-rate constant (koff) is 0.000311 s⁻¹ and 0.000232 s⁻¹; the on-rate (kon) is 3.84e+06 M⁻¹ s⁻¹ and 3.94e+06 M⁻¹ s⁻¹.

As to B6, the dissociation constant (Kd) turned out to be 820 pM, the koff was 0.00114 s⁻¹ and the kon worked out at 1.39e+06 M⁻¹ s⁻¹.

For the molecule B7, the Kd is 700 pM and 650 pM; the off-rate constant (koff) is 0.00105 s⁻¹ and 0.000954 s⁻¹; the association rate constant (kon) is 1.49e+06 M⁻¹ s⁻¹ and 1.47e+06 M⁻¹ s⁻¹.

B8 gave an equilibrium dissociation constant (Kd) of 25 pM, a dissociation rate constant (koff) of 4.2e-05 s⁻¹ and a kon of 1.66e+06 M⁻¹ s⁻¹.

B9 came in with a Kd of 24 pM, a koff of 4.1e-05 s⁻¹ and a kon of 1.71e+06 M⁻¹ s⁻¹.

In the next test the target is T3, variant human BR3-Fc fusion.
T3 construct: produced in CHO cells; also called vBR3-Fc; vhBR3-Fc
In words: SPR, vBR3-Fc on chip.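 Also: Anti-BR3 antibodies passed over chip-bound BR3-Fc in PBS with 0.05% polysorbate 20, on and off rates fitted together globally to a 1:1 binding model.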
Details: not given
For orientation: Surface plasmon resonance follows binding to a sensor surface in real time, without labels.
As to B1, the Kd amounted to 130 pM, the off-rate (koff) was 0.000257 s⁻¹ and the kon was 1.96e+06 M⁻¹ s⁻¹.

Take B2: the Kd amounted to 11200 pM, the koff amounted to 0.00139 s⁻¹ and the kon came to 120000 M⁻¹ s⁻¹.

The molecule B3 displayed a Kd of 3200 pM, a dissociation rate constant (koff) of 0.00123 s⁻¹ and an on-rate constant (kon) of 380000 M⁻¹ s⁻¹.

On to B4, for which the Kd was 3490 pM, the koff came to 0.00121 s⁻¹ and the kon was found to be 350000 M⁻¹ s⁻¹.

As to B5, the Kd is 70 pM and 92 pM; the off-rate constant (koff) is 0.000157 s⁻¹ and 0.000222 s⁻¹; the kon was 2.18e+06 M⁻¹ s⁻¹ and 2.41e+06 M⁻¹ s⁻¹.

Regarding B6, the Kd was 1670 pM, the koff stood at 0.000804 s⁻¹ and the kon came out at 480000 M⁻¹ s⁻¹.

With B7, the Kd is 2310 pM and 2080 pM; the dissociation rate constant (koff) is 0.00104 s⁻¹ and 0.000968 s⁻¹; the on-rate (kon) is 450000 M⁻¹ s⁻¹ and 466000 M⁻¹ s⁻¹.

As for B8, the Kd is 288 pM, the koff came out at 0.000186 s⁻¹ and the kon stood at 648000 M⁻¹ s⁻¹.

B9 gave a dissociation constant (Kd) of 400 pM, a koff of 0.000231 s⁻¹ and a kon of 576000 M⁻¹ s⁻¹.

The same test, now with this note: 140 RU BR3-Fc immobilized.
Regarding B10, the Kd is 20000 pM.

The same test, now with this note: 380 RU BR3-Fc immobilized.
Regarding B10, the dissociation constant Kd worked out at 21800 pM.

The target of the next test is T2, human BR3 extracellular domain. In words: phage competition ELISA.
Details: not given
On the technique in general: ELISA stands for enzyme-linked immunosorbent assay.
The term IC50 denotes the point on the concentration scale where inhibition reaches its midpoint. Lower therefore signals inhibition by little substance. In turn, B11 displayed an IC50 of 1300 pM.

As for B12, the IC50 came out at 300 pM.

Consider B13, for which the IC50 was determined as 800 pM.

Take B14: the IC50 was found to be 9400 pM.

B15 returned an IC50 of 11600 pM.

The molecule B16 showed a half-maximal inhibitory concentration (IC50) of 600 pM.

B17 returned an IC50 of 400 pM.

Regarding B18, the IC50 was determined as 2500 pM.

In turn, B19 gave a half-inhibitory concentration (IC50) of 700 pM.

Take B20: the IC50 is 1300 pM.

On to B21, for which the half-maximal inhibitory concentration (IC50) was 1700 pM.

B22 returned an IC50 of 200 pM.

The target of another test is T1, mouse BR3 extracellular domain. In words: phage competition ELISA.
Details: not given
On to B11, for which the 50% inhibitory concentration (IC50) is 16100 pM.

On to B12, for which the IC50 worked out at 6400 pM.

In the case of B13, the IC50 was found to be 21900 pM.

In turn, B14 had an IC50 of 1400 pM.

On to B15, for which the IC50 was 6100 pM.

In turn, B16 returned an IC50 of 23000 pM.

Consider B17, for which the concentration for half-maximal inhibition (IC50) is 600 pM.

B18 registered an IC50 of 40900 pM.

B19 returned an IC50 of 1300 pM.

Regarding B20, the IC50 amounted to 1800 pM.

Turning to B21, the IC50 stood at 16800 pM.

Turning to B22, the half-inhibitory concentration (IC50) worked out at 800 pM.

For a further test, the target named is T2, human BR3 extracellular domain. The experiment in a line: phage competition ELISA.
Details: not given
This is another data set of the same source.
Take B23: the concentration for half-maximal inhibition (IC50) amounted to 53 pM.

In turn, B24 registered an IC50 of 190 pM.

In turn, B25 yielded a half-inhibitory concentration (IC50) of 50 pM.

B26 yielded a half-inhibitory concentration (IC50) of 70 pM.

The next test concerns the target T1, mouse BR3 extracellular domain. The experiment in a line: phage competition ELISA.
Details: not given
The source holds these as a separate data set.
The molecule B23 had a 50% inhibitory concentration (IC50) of 209 pM.

Regarding B24, the IC50 turned out to be 960 pM.

For the molecule B25, the IC50 stood at 193 pM.

In turn, B26 had an IC50 of 300 pM.
